The values that follow come from IntAct's records for PubMed 11264384.

This assay addresses nef_hv1a2 nef (UniProt P03407).

nef_hv1a2 nef, sequence (P03407 whole entry): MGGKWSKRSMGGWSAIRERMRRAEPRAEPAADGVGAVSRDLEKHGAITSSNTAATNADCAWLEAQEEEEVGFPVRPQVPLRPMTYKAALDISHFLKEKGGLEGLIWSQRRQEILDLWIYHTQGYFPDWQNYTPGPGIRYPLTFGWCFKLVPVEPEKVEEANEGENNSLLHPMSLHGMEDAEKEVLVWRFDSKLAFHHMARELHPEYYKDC

As for “T-cell surface glycoprotein CD4 (Homo sapiens) (from UniProt P01730) L438A;L439A”, the “effect of a mutation on the interaction” value was “disrupting interaction strength”.
